± gives the uncertainty stated by the source.
B1: F-BAR and double SH3 domains protein 1, residues 467 to 528; numbered along this chain, Q86WN1 (parent)
chain: RALPCPAHVVFRYQAGREDELTITEGEWLEVIEEGDADEWVKARNQHGEVGFVPERYLNFPD

Variants of: B1
Assay: abundance fitness (aPCA) (normalised: wild type 0, dead -1); higher = more abundant; growth selection in yeast, the domain comes from the species named
Conditions: Homo sapiens

Variant | abundance fitness
E20Y | -0.548 ± 0.17
E20R | -0.35 ± 0.053
D62R | -0.309 ± 0.15
D62T | 0.028 ± 0.079
D62I | -0.435 ± 0.12
D62K | -0.148 ± 0.15
D62H | 0.011 ± 0.13
G35I | -0.232 ± 0.19
G35D | -0.211 ± 0.094
G35S | -0.07 ± 0.052
G35W | -0.332 ± 0.1
G35P | -0.371 ± 0.079
G35E | -0.407 ± 0.089
A15Q | -0.27 ± 0.062
A15D | -0.661 ± 0.45
A15P | -0.374 ± 0.078
A15M | -0.79 ± 0.16
D19Q | 0.034 ± 0.079
D19I | -0.095 ± 0.073
D19M | -0.12 ± 0.061
D19A | 0.092 ± 0.061
D19K | -0.05 ± 0.063
T24M | -0.02 ± 0.063
A7T | -0.917 ± 0.18

Variant | abundance fitness
A7S | -0.631 ± 0.074
A7C | -0.441 ± 0.21
A7Q | -0.854 ± 0.15
A7W | -0.98 ± 0.23
V41R | -0.526 ± 0.079
V41I | -0.353 ± 0.097
V41S | -0.73 ± 0.11
V41E | -1.12 ± 0.47
V41G | -0.72 ± 0.11
Y57V | 0.103 ± 0.039
Y57M | -0.041 ± 0.063
Y57I | -0.309 ± 0.09
R1N | 0.002 ± 0.099
R1Q | -0.294 ± 0.22
R1K | -0.339 ± 0.094
R1G | -0.238 ± 0.057
E33M | -0.266 ± 0.13
E33S | 0.063 ± 0.048
E33C | -0.05 ± 0.09
E33F | -0.725 ± 0.12
E33Q | 0.051 ± 0.11
P4M | -0.247 ± 0.11
P4K | -0.359 ± 0.15
P4T | -0.136 ± 0.093

Variant | abundance fitness
P4I | -0.381 ± 0.11
P4H | -0.472 ± 0.13
P4Q | -0.553 ± 0.13
H8Q | -0.168 ± 0.077
H8N | -0.392 ± 0.11
H8F | -0.591 ± 0.12
H8T | -0.213 ± 0.067
H8P | -0.905 ± 0.14
H8G | -0.651 ± 0.088
H8L | -0.202 ± 0.044
V50P | -0.833 ± 0.14
V50L | -0.285 ± 0.052
V50T | -0.11 ± 0.078
W40G | -0.547 ± 0.07
W40Q | -0.122 ± 0.066
W40L | -0.134 ± 0.048
K42F | -0.207 ± 0.079
K42R | -0.182 ± 0.058
K42W | -0.181 ± 0.083
K42N | -0.575 ± 0.23
K42M | -0.176 ± 0.057
K42I | 0.092 ± 0.085
K42L | -0.166 ± 0.044
K42A | -0.511 ± 0.086

Variant | abundance fitness
K42D | -0.664 ± 0.17
G16R | -0.064 ± 0.053
G16E | 0.165 ± 0.12
G16Y | 0.497 ± 0.18
V10F | -0.465 ± 0.14
V10E | -0.247 ± 0.11
V10P | -1.05 ± 0.25
V10Q | -0.733 ± 0.29
V53I | -0.031 ± 0.085
V53W | -1.03 ± 0.16
V53A | -0.564 ± 0.081
V53G | -0.624 ± 0.078
V53M | -0.673 ± 0.11
V53R | -0.662 ± 0.065
V53C | -0.262 ± 0.081
V53Q | -0.624 ± 0.1
V53F | -0.823 ± 0.17
E55P | -0.123 ± 0.088
E55W | -0.151 ± 0.056
E55Q | -0.138 ± 0.069
E55D | -0.057 ± 0.11
V9H | -0.85 ± 0.22
V9A | 0.002 ± 0.058
V9Q | -0.607 ± 0.13

Variant | abundance fitness
V9G | -0.602 ± 0.081
V9C | -0.32 ± 0.15
V9Y | -0.631 ± 0.15
V9L | -0.835 ± 0.075
L58K | -1.01 ± 0.29
L58P | -0.946 ± 0.18
L58F | -0.902 ± 0.14
L58V | -0.267 ± 0.062
L58A | -0.743 ± 0.085
L58E | -0.951 ± 0.18
L58R | -0.859 ± 0.061
L58W | -0.829 ± 0.07
A2L | -0.007 ± 0.045
A2G | 0.133 ± 0.043
A2F | 0.144 ± 0.12
A2Q | 0.007 ± 0.097
A2H | -0.256 ± 0.13
D36L | -0.01 ± 0.047
D36C | -0.182 ± 0.11
D36P | 0.13 ± 0.055
D36W | 0.006 ± 0.071
D36Q | 0.073 ± 0.062
D36R | -0.016 ± 0.05
D36G | -0.049 ± 0.094

Variant | abundance fitness
P6S | -0.344 ± 0.071
P6K | -0.219 ± 0.075
P6F | -0.285 ± 0.085
P6T | -0.219 ± 0.097
P6A | -0.094 ± 0.062
P6V | -0.243 ± 0.049
P6N | -0.617 ± 0.15
L21W | -0.648 ± 0.11
L21E | -0.751 ± 0.18
L21I | -0.49 ± 0.12
L21Q | -0.927 ± 0.21
L21F | -0.588 ± 0.16
L21H | -0.701 ± 0.43
F11W | -0.075 ± 0.049
F11Y | 0.032 ± 0.1
F11S | 0.013 ± 0.051
F11E | 0.109 ± 0.091
F11Q | -0.103 ± 0.07
R17P | -0.797 ± 0.27
R17H | 0.043 ± 0.11
R17G | -0.09 ± 0.052
R17T | -0.164 ± 0.079
R17Q | -0.117 ± 0.088
R17I | -0.557 ± 0.14

Variant | abundance fitness
R17V | -0.253 ± 0.06
P61L | 0.004 ± 0.043
P61W | -0.174 ± 0.058
P61A | -0.03 ± 0.065
P61K | 0.026 ± 0.11
P61G | 0.042 ± 0.067
P61E | -0.111 ± 0.1
N45Q | -0.884 ± 0.22
N45L | -0.737 ± 0.086
N45P | -0.301 ± 0.15
N45Y | -0.377 ± 0.18
N45W | -1.16 ± 0.22
N45S | -0.571 ± 0.11
T22I | -0.847 ± 0.16
T22N | 0.09 ± 0.13
R56H | -0.118 ± 0.1
R56F | -0.164 ± 0.072
R56G | -0.125 ± 0.061
R56P | -0.129 ± 0.062
R56S | 0.052 ± 0.043
I32L | -0.059 ± 0.051
I32S | -0.863 ± 0.12
I32V | -0.07 ± 0.041

Source: the Human Domainome abundance scans (Beltran et al. 2025)
